Tests used:
Assay in all cases: anti-FLAG co-IP from lysate of C-FLAG B3GNT2 cells, mass spectrometry
[1] = biological target: AIFM1 (human) (UniProt O95831)
[2] = biological target: ELOC (human) (UniProt Q15369)
[3] = biological target: ERP44 (human) (UniProt Q9BS26)
[4] = biological target: FBXO6 (human) (UniProt Q9NRD1)
[5] = biological target: HDGFL2 (human) (UniProt Q7Z4V5)
[6] = biological target: IPO7 (human) (UniProt O95373)
[7] = biological target: RRBP1 (human) (UniProt Q9P2E9)
[8] = biological target: STAU1 (human) (UniProt O95793)
[9] = biological target: UBTF (human) (UniProt P17480)
Sequence of UBTF (human) (P17480 other isoform, or with tags, fused parts or gaps limits assumed): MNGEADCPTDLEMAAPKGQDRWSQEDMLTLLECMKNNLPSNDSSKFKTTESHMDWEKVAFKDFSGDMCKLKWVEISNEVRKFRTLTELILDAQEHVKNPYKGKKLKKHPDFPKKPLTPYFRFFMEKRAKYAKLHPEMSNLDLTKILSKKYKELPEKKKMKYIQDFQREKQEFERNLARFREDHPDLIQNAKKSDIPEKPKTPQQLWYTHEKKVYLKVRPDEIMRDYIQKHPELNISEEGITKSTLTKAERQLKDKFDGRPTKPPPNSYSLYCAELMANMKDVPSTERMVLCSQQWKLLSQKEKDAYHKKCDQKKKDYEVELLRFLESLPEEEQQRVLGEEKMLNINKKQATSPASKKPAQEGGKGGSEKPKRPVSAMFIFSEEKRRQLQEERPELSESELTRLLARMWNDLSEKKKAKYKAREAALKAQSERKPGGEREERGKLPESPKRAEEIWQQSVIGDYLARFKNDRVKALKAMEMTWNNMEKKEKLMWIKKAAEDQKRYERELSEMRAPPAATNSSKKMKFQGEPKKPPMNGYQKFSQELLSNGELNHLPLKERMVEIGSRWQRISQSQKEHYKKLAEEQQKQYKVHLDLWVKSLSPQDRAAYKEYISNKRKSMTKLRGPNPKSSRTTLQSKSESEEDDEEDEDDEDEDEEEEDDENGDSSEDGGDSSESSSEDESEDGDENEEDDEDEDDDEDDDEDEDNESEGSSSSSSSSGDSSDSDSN

Sequence of ERP44 (human) (Q9BS26 30-406 limits assumed): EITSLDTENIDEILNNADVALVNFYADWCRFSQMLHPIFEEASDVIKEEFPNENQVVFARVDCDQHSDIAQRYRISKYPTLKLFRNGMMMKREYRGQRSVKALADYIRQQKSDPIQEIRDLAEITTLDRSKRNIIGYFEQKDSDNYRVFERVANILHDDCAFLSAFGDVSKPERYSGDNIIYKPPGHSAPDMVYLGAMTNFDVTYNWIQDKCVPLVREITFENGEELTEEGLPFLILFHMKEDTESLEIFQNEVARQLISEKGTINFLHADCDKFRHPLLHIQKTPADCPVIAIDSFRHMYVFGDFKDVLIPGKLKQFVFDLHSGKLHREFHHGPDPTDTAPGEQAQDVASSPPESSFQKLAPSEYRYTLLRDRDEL
Sequence of STAU1 (human) (O95793 other isoform, or with tags, fused parts or gaps limits assumed): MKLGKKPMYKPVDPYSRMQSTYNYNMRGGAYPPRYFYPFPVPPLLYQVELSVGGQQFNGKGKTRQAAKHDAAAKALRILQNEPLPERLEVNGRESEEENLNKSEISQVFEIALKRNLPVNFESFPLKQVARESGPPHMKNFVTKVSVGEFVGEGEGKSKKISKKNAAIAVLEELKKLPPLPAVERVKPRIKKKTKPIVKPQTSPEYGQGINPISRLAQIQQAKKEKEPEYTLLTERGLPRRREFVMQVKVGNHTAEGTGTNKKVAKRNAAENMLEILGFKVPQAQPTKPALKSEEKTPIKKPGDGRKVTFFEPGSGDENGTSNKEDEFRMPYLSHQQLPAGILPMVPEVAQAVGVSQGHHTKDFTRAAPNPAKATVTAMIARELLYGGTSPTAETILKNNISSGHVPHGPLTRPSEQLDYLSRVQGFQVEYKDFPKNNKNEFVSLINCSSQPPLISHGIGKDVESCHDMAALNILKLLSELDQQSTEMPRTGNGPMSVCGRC
Sequence of AIFM1 (human) (O95831 55-613 limits assumed): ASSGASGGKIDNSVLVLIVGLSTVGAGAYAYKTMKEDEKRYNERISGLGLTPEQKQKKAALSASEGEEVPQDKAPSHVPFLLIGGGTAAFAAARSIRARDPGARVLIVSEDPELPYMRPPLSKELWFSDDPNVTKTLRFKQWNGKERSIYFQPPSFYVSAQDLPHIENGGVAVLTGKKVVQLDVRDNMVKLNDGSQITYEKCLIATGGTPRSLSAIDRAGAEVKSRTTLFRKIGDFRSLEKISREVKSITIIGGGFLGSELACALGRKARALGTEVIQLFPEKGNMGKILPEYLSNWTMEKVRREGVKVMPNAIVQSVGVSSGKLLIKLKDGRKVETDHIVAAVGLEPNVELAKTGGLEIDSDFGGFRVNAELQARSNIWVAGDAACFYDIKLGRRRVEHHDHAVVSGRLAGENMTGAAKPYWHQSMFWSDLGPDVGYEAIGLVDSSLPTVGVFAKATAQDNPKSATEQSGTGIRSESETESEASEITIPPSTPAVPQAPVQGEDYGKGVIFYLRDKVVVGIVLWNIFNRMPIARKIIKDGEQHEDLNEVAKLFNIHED
Sequence of ELOC (human) (Q15369 whole entry): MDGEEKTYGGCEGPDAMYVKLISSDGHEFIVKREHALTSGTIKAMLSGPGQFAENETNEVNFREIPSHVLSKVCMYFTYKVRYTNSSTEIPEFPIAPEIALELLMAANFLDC
Sequence of HDGFL2 (human) (Q7Z4V5 whole entry): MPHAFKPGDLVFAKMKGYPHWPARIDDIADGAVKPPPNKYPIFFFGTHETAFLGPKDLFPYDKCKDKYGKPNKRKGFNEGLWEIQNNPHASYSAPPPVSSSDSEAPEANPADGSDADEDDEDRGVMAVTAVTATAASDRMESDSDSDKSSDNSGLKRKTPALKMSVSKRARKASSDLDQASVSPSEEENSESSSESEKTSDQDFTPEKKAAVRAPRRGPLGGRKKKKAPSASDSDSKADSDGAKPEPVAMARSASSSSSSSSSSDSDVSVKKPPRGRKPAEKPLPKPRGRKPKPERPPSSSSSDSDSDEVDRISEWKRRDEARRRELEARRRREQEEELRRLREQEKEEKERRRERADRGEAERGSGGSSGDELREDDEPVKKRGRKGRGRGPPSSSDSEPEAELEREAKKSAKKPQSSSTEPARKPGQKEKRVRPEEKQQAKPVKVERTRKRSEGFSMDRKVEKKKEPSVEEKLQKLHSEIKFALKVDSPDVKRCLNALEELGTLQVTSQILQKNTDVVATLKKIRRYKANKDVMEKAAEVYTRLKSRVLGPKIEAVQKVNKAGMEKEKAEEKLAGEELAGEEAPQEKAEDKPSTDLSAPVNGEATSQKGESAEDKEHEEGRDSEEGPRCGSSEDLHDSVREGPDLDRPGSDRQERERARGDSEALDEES
Sequence of RRBP1 (human) (Q9P2E9 whole entry): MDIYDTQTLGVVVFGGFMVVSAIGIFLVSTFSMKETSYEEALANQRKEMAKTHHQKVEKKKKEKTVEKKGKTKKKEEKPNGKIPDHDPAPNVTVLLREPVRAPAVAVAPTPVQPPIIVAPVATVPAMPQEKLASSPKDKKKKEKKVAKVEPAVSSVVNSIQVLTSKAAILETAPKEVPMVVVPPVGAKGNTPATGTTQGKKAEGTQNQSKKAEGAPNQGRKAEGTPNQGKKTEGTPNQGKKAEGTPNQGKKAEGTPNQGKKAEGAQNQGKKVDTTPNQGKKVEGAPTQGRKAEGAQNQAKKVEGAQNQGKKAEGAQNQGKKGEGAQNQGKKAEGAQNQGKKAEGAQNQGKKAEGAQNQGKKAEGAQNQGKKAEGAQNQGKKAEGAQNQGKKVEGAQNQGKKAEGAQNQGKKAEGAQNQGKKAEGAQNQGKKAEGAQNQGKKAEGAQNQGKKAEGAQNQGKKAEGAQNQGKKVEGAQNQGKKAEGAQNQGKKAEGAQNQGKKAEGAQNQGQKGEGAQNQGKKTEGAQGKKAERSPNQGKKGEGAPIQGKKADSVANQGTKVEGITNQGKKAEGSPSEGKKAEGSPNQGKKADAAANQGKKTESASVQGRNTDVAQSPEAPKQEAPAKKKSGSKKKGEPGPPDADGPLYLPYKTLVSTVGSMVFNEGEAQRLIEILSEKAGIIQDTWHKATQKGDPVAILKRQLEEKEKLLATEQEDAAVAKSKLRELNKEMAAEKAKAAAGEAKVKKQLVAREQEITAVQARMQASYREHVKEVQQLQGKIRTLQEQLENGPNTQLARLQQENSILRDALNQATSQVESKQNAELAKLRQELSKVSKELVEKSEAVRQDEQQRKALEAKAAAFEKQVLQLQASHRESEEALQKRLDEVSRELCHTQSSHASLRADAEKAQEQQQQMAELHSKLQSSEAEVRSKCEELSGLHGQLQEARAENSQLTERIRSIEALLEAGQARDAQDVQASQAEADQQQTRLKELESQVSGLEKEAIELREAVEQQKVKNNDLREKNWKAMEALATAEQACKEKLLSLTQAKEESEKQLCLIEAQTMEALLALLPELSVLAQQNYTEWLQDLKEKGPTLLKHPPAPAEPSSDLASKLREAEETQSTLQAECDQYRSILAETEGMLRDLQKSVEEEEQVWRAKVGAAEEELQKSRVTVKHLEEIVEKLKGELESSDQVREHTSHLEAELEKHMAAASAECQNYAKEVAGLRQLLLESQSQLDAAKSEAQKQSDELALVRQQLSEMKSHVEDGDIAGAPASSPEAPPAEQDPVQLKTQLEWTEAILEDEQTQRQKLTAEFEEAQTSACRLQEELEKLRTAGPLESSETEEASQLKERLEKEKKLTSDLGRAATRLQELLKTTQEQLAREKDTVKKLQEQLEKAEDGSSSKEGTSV
Sequence of FBXO6 (human) (Q9NRD1 whole entry): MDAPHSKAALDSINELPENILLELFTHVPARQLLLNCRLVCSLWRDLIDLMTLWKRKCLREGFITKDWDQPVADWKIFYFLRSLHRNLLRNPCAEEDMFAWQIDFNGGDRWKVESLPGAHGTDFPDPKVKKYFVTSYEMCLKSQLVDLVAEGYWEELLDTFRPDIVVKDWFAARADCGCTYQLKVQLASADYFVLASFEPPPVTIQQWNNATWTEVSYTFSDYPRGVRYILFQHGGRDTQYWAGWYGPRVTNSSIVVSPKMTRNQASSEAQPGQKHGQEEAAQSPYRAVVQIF

Substance: C-terminal FLAG tagged B3GNT2 (from UniProt Q9NY97 1-397) (enzyme)
- co-IP mass spectrometry count [1]: 5
- co-IP mass spectrometry count [2]: 2
- co-IP mass spectrometry count [3]: 2
- co-IP mass spectrometry count [4]: 5
- co-IP mass spectrometry count [5]: 2
- co-IP mass spectrometry count [6]: 9
- co-IP mass spectrometry count [7]: 16
- co-IP mass spectrometry count [8]: 6
- co-IP mass spectrometry count [9]: 2

Source: patent US20240261333A1, “NOVEL TARGETS FOR ENHANCING ANTI-TUMOR IMMUNITY” (THE BROAD INSTITUTE, INC., priority 2021, published 2024)
